Here are results for two sequences from US11839642B2, “Anti-angiogenin peptides, compositions, and methods of use” (The Board of Regents of the University of Oklahoma, priority 2018, dated 2023).

The target of this assay is T1, angiogenin (Homo sapiens, UniProt P03950).
T1 construct: purchased R&D systems, Inc., Minneapolis
The assay is described as follows: Affinity-selection (biopanning) of Ph.D.-12 phage library against angiogenin, DNA sequencing of plaques. Type of assay: binding. Particulars: after fourth round of affinity-selection. The method, then:
Phage affinity-selection (biopanning) procedure was performed by following the standard protocol with minor modifications (FIG. 1). The target protein angiogenin (R&D systems, Inc., Minneapolis) used for biopanning was diluted to 20, 4, 0.8 and 0.16 μg/mL in 0.1 M NaHCO3 (pH=8.6) in the first, second, third and fourth round, respectively. During each round, 400 μL of angiogenin with designated concentration, was added into a well (diameter is 15.6 mm) of the 24 well cell culture plate (Cat. #: 142475, Thermo Fisher Scientific), and incubated overnight at 4° C. with the lid on in a humidified container. Then the supernatant was pipetted out and the plate was firmly slapped face down on a paper towel to remove the residual solution. Afterwards, 500 μL of blocking buffer (5 mg/mL BSA, 0.1M NaHCO3) was added into the well and incubated for 3 h at 4° C., after which the supernatant was discarded. […]
A small amount (5 μL) of the above eluate mixture was diluted 10-fold with PBS buffer. […] The titer was calculated by this equation: titer=1000×N×M pfu/mL, where N and M are the dilution factor and the number of the blue phage plaques on a plate, respectively. […]

T1 sequence (P03950 25-147): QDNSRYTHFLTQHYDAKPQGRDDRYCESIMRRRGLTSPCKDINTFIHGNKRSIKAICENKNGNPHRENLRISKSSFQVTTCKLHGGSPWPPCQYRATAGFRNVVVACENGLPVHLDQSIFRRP

“WPYWNHHSHNNV (PEPTIDE (1)..(12) Completely synthesized in the lab - Ph.D.-12 Phage Display Peptide Library) [WV peptide]”: the “repeats of the peptide sequence among 57 sequenced plaques” value came out at 11 repeats.

Take “FHHPSIHDRHRH (PEPTIDE (1)..(12) Completely synthesized in the lab - Ph.D.-12 Phage Display Peptide Library) [FH peptide]”: the “repeats of the peptide sequence among 57 sequenced plaques” value is recorded as 4 repeats.
